Measured values from the Human Domainome abundance scans (Beltran et al. 2025).
± gives the uncertainty stated by the source.

B1: Cold shock protein CspB, residues 1 to 66; numbered along this chain, P41016 (parent)
chain: MQRGKVKWFNNEKGYGFIEVEGGSDVFVHFTAIQGEGFKTLEEGQEVSFEIVQGNRGPQAANVVKL

Variants of: B1
Experiment: abundance fitness (aPCA) (normalised: wild type 0, dead -1); higher = more abundant; growth selection in yeast, the domain comes from the species named
Details: Bacillus caldolyticus
G54D gave an abundance fitness of -0.07 ± 0.067. G54L gave an abundance fitness of -0.131 ± 0.052. Work on G54F yielded an abundance fitness of -0.127 ± 0.075. In the case of G54H, the abundance fitness is reported as 0.045 ± 0.11. G54S showed an abundance fitness of -0.026 ± 0.034. For G54C, the abundance fitness was -0.013 ± 0.047. With G54A the abundance fitness was -0.028 ± 0.061. With G54N the abundance fitness was -0.11 ± 0.12. G54V showed an abundance fitness of -0.171 ± 0.068. In the case of G54P, the abundance fitness is reported as -0.308 ± 0.062. For G54W, the abundance fitness was -0.18 ± 0.036. Q59T showed an abundance fitness of -0.035 ± 0.042. Q59R showed an abundance fitness of 0.092 ± 0.033. For Q59H, the abundance fitness was -0.02 ± 0.068. Q59K gave an abundance fitness of 0.059 ± 0.055. In the case of Q59P, the abundance fitness is reported as -0.733 ± 0.081. Q59C showed an abundance fitness of -0.05 ± 0.061. Q59S gave an abundance fitness of -0.01 ± 0.028. In the case of Q59D, the abundance fitness is reported as -0.429 ± 0.072. In the case of Q59Y, the abundance fitness is reported as -0.012 ± 0.065. For Q59V, the abundance fitness was -0.029 ± 0.039. In the case of Q59I, the abundance fitness is reported as -0.08 ± 0.063. Work on Q59L yielded an abundance fitness of 0.016 ± 0.025. Q59N gave an abundance fitness of -0.082 ± 0.092. Q59E gave an abundance fitness of -0.103 ± 0.041. Q59W showed an abundance fitness of -0.029 ± 0.036. In the case of Q59M, the abundance fitness is reported as -0.011 ± 0.044. Work on Q59A yielded an abundance fitness of -0.003 ± 0.031. Variant Q59G has an abundance fitness of -0.192 ± 0.035. In the case of Q59F, the abundance fitness is reported as 0.061 ± 0.056. With A61N the abundance fitness was -0.061 ± 0.063. A61E showed an abundance fitness of -0.051 ± 0.048. For A61L, the abundance fitness was -0.067 ± 0.044. In the case of A61Y, the abundance fitness is reported as 0.015 ± 0.076. Variant A61F has an abundance fitness of -0.06 ± 0.047. Work on A61D yielded an abundance fitness of -0.024 ± 0.073. For A61R, the abundance fitness was 0.015 ± 0.035. A61M gave an abundance fitness of 0.022 ± 0.21. Variant A61Q has an abundance fitness of 0.012 ± 0.047. In the case of A61S, the abundance fitness is reported as 0.008 ± 0.04. In the case of A61K, the abundance fitness is reported as 0.02 ± 0.046. A61V showed an abundance fitness of -0.06 ± 0.06. Work on A61C yielded an abundance fitness of -0.03 ± 0.047. For A61T, the abundance fitness was -0.072 ± 0.039. A61W showed an abundance fitness of -0.003 ± 0.058. For A61I, the abundance fitness was 0.01 ± 0.079. With A61P the abundance fitness was -0.828 ± 0.062. With A61H the abundance fitness was -0.004 ± 0.072. In the case of N55I, the abundance fitness is reported as 0.059 ± 0.13. N55Q gave an abundance fitness of -0.042 ± 0.18. N55P gave an abundance fitness of -0.026 ± 0.15. N55D showed an abundance fitness of -0.309 ± 0.28. Work on N55L yielded an abundance fitness of -0.035 ± 0.11. In the case of N55W, the abundance fitness is reported as 0.002 ± 0.22. Work on N55T yielded an abundance fitness of -0.256 ± 0.18. Work on N55A yielded an abundance fitness of -0.035 ± 0.16. N55V showed an abundance fitness of 0.005 ± 0.099. Variant N55G has an abundance fitness of -0.064 ± 0.12. In the case of N55C, the abundance fitness is reported as -0.089 ± 0.17. With N55S the abundance fitness was 0.049 ± 0.092. N55F gave an abundance fitness of 0.046 ± 0.43. N55R gave an abundance fitness of -0.075 ± 0.094. N55E gave an abundance fitness of -0.043 ± 0.31. N55K showed an abundance fitness of 0.018 ± 0.15. In the case of P58E, the abundance fitness is reported as -0.017 ± 0.058. In the case of P58D, the abundance fitness is reported as -0.037 ± 0.059. Variant P58S has an abundance fitness of -0.026 ± 0.038. For P58I, the abundance fitness was -0.055 ± 0.072. In the case of P58L, the abundance fitness is reported as -0.018 ± 0.028. P58A gave an abundance fitness of 0 ± 0.047. In the case of P58K, the abundance fitness is reported as -0.036 ± 0.052. With P58M the abundance fitness was 0.006 ± 0.041. Variant P58G has an abundance fitness of -0.082 ± 0.039. In the case of P58F, the abundance fitness is reported as -0.046 ± 0.055. Work on P58W yielded an abundance fitness of -0.016 ± 0.047. In the case of P58V, the abundance fitness is reported as -0.021 ± 0.035. P58H gave an abundance fitness of -0.142 ± 0.12. Variant P58Y has an abundance fitness of -0.066 ± 0.073. Variant P58C has an abundance fitness of -0.083 ± 0.059. In the case of P58Q, the abundance fitness is reported as -0.015 ± 0.052. P58R showed an abundance fitness of -0.029 ± 0.044. I51Y gave an abundance fitness of 0.037 ± 0.089. I51F gave an abundance fitness of -0.082 ± 0.079. I51A showed an abundance fitness of -0.038 ± 0.042. Work on I51L yielded an abundance fitness of -0.003 ± 0.03. I51E gave an abundance fitness of -0.026 ± 0.048. I51C showed an abundance fitness of 0.031 ± 0.084. I51V gave an abundance fitness of 0.009 ± 0.049. In the case of I51H, the abundance fitness is reported as -0.019 ± 0.082. In the case of I51R, the abundance fitness is reported as -0.004 ± 0.034. With I51N the abundance fitness was -0.071 ± 0.074. I51M showed an abundance fitness of 0.023 ± 0.044. Work on I51T yielded an abundance fitness of -0.033 ± 0.048. Work on I51K yielded an abundance fitness of -0.026 ± 0.05. I51G showed an abundance fitness of -0.079 ± 0.042. In the case of I51W, the abundance fitness is reported as -0.041 ± 0.039. Variant I51Q has an abundance fitness of 0.007 ± 0.047. I51P showed an abundance fitness of -0.023 ± 0.05. In the case of A60F, the abundance fitness is reported as -0.79 ± 0.078. For A60G, the abundance fitness was -0.171 ± 0.037. For A60N, the abundance fitness was -1.08 ± 0.21. For A60H, the abundance fitness was -0.771 ± 0.099. A60V gave an abundance fitness of -0.254 ± 0.031. A60L showed an abundance fitness of -0.636 ± 0.033. For A60T, the abundance fitness was -0.487 ± 0.043. For A60C, the abundance fitness was -0.115 ± 0.085. With A60S the abundance fitness was -0.14 ± 0.034. A60Q gave an abundance fitness of -0.717 ± 0.064. A60M gave an abundance fitness of -0.752 ± 0.062. With A60E the abundance fitness was -0.812 ± 0.073. Work on A60W yielded an abundance fitness of -1 ± 0.14. For E46W, the abundance fitness was -0.035 ± 0.043. Work on E46H yielded an abundance fitness of -0.043 ± 0.059. For E46G, the abundance fitness was -0.017 ± 0.04. With E46K the abundance fitness was -0.004 ± 0.055. E46R gave an abundance fitness of -0.014 ± 0.029. Work on E46C yielded an abundance fitness of -0.046 ± 0.053. In the case of E46S, the abundance fitness is reported as 0.015 ± 0.034. For E46V, the abundance fitness was -0.031 ± 0.037. Work on E46M yielded an abundance fitness of 0.006 ± 0.048. With E46D the abundance fitness was -0.153 ± 0.084. E46L showed an abundance fitness of 0.014 ± 0.03. In the case of E46F, the abundance fitness is reported as -0.025 ± 0.044. With E46I the abundance fitness was -0.071 ± 0.058. For E46A, the abundance fitness was -0.018 ± 0.052. E46T showed an abundance fitness of -0.053 ± 0.048. E46P showed an abundance fitness of -0.023 ± 0.049. E46Q gave an abundance fitness of -0.012 ± 0.051. For Q45M, the abundance fitness was -0.032 ± 0.057. For Q45S, the abundance fitness was -0.029 ± 0.038. Q45R gave an abundance fitness of -0.039 ± 0.035. With Q45W the abundance fitness was -0.023 ± 0.034. For Q45T, the abundance fitness was -0.038 ± 0.05. In the case of Q45H, the abundance fitness is reported as -0.036 ± 0.077. In the case of Q45N, the abundance fitness is reported as -0.005 ± 0.082. Variant Q45Y has an abundance fitness of -0.072 ± 0.12. With Q45I the abundance fitness was -0.09 ± 0.075. Variant Q45L has an abundance fitness of -0.021 ± 0.03. Q45V showed an abundance fitness of -0.063 ± 0.039. Work on Q45P yielded an abundance fitness of -0.655 ± 0.051. L66F showed an abundance fitness of 0.033 ± 0.086. For L66A, the abundance fitness was -0.055 ± 0.065. L66D showed an abundance fitness of -0.101 ± 0.18. Variant L66G has an abundance fitness of 0.005 ± 0.08. In the case of L66E, the abundance fitness is reported as -0.01 ± 0.12. In the case of L66C, the abundance fitness is reported as -0.067 ± 0.084. With Q53P the abundance fitness was -0.092 ± 0.041. Q53A gave an abundance fitness of -0.002 ± 0.045. Q53D showed an abundance fitness of 0.022 ± 0.093. Q53N showed an abundance fitness of 0.004 ± 0.071. In the case of Q53T, the abundance fitness is reported as 0.018 ± 0.044. For Q53L, the abundance fitness was -0.027 ± 0.028. Q53S gave an abundance fitness of -0.03 ± 0.036. Work on Q53V yielded an abundance fitness of -0.001 ± 0.04. In the case of Q53K, the abundance fitness is reported as -0.033 ± 0.052. In the case of Q53H, the abundance fitness is reported as -0.046 ± 0.08. Q53R showed an abundance fitness of -0.002 ± 0.043. In the case of Q53M, the abundance fitness is reported as 0.01 ± 0.044. Q53W showed an abundance fitness of 0.007 ± 0.052. In the case of Q53E, the abundance fitness is reported as 0.003 ± 0.052. Variant V47M has an abundance fitness of -0.702 ± 0.48. V47L gave an abundance fitness of -0.332 ± 0.23. With V47I the abundance fitness was 0.065 ± 0.14. With V47Q the abundance fitness was -0.935 ± 0.36. V47A gave an abundance fitness of -0.215 ± 0.25. V47S showed an abundance fitness of -0.866 ± 0.38. V47G showed an abundance fitness of -0.623 ± 0.26.
